This is an account of results in patent US11156615B2 (priority 2015, dated 2021).

Positions count from the first letter of the chain named.

The nature of series [1]: Glucose-dependent fluorescence emission intensity spectra of conjugates (Nanodrop3300). The format is biochemical. Particulars: Nanodrop3300. An excerpt: Semi-synthetic FRSs were engineered by site-specifically attaching thiol-reactive, environmentally sensitive fluorophores that respond to ligand-mediated conformational changes. Identification of FRS candidates that are useful for sensing applications comprises three steps: • 1. Cysteine scan. Mutant glucose-binding proteins containing single cysteines are constructed for site-specific attachment of thiol-reactive fluorophores. […] Candidate positions fall into three classes: endosteric, replacing a residue that contacts the ligand directly; peristeric, located at the rim of the binding site; allosteric (Marvin et al. 1997 Proc Natl Acad Sci USA, 94, 4366-71; Marvin 1998 J Am Chem Soc, 120, 7-11), located outside the binding site at sites that undergo local structural changes in concert with the hinge-bending motion. • 2. Fluorophore screening. Thiol-reactive, environmentally sensitive fluorophores are attached to each cysteine mutant prepared in step 1. • 3. Evaluation of the glucose-mediated change of all the fluorescent conjugates prepared in step 2. Responses to ligand binding in which there is both a change in fluorescence emission intensity and spectral shape was essential for chemometric applications, because such changes enable ratiometric measurements. Changes in spectral shape typically are accompanied by a shift in the wavelength of the emission intensity maxima. Three classes of fluorescent responses are possible: • i. No response. • ii. Monochromatic response (emission intensity increases or decreases without a change in spectral shape) • iii.

Series [2] can be described thus: Thermostability: mid-point thermal denaturation temperature (Tm) from temperature-dependent fluorescence (Roche LightCycler). The format is physicochemical. As to conditions: apo-protein. The method, boiled down:
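Unfolding tracked by SYPRO binding to denatured protein, fluorescence at 488 nm/510 nm recorded on a LightCycler as temperature rose in 1 K steps. Tm taken as denaturation mid-point, for protein in solution or immobilized on Ni-NTA or NHS-agarose beads.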

Series [3] in a line: Galactose binding: isothermal fluorescence titrations of conjugates. Also on record: key to Galactose trueKd: nb, no bonding. As to conditions: for S, selectivity = trueKd(galactose)/trueKd(glucose): S > 1, selective for glucose; for Kd: read-out: Galactose trueKd.
The nature of series [4]: Glucose binding: isothermal fluorescence titrations, ratiometric (appKd) and monochromatic (trueKd) fits. Particulars: room temperature. The source says:
2 For a single glucose-binding site, the fractional saturation is given by
[formula] where ^apoIλ2 and ^satIλ2 are the emission intensities of the monochromatic signal at wavelength λ2 of the ligand-free and ligand-bound protein, respectively.

Where [5] appears, read: Acrylodan conjugate of ttGGBP.17C mutant.
Where [6] appears, read: Badan conjugate of ttGGBP.17C mutant.
The mark [7] stands for this setting: Acrylodan conjugate, monochromatic titration curves, room temperature.
Setting [8] is: Badan conjugate, monochromatic titration curves, room temperature.
Setting [9] is: read-out: Glucose appKd, Acrylodan conjugate, dichromatic ratiometry.
The mark [10] stands for this setting: read-out: Glucose appKd, Badan conjugate, dichromatic ratiometry.
The mark [11] stands for this setting: read-out: Glucose trueKd, Acrylodan conjugate, monochromatic titration curves.
Setting [12] is: read-out: Glucose trueKd, Badan conjugate, monochromatic titration curves.

B1: ttGGBP17C.2: affinity-tuning mutant, 17C background, SEQ ID NO: 67 (protein)
chain: MKQLNIGVAIYKFDDTCMTGVRNAMTAEAQGKAKLNMVDSQNSQPTQNDQVDLFITKKMNALAINPVDPTAAGTIIDKAKQANIPVVFFNREPLPEDMKKWDKVYYVGAKAEQSGILQGQIMADYWKAHPEADKNHDGVMQYVMLMGQPGHPDAILRTQYSIQTVKDAGIKVQELAKDYANWDRVTAHDKMAAWLSSFGDKIEAVFANNDDMALGAIEALKSAGYFTGNKYIPVVGVDATAPGIQAIKDGTLLGTVLNDAKNQAKATFNIAYELAQGITPTKDNIGYDITDGKYVWIPYKKITKDNISDAEQGGSHHHHHH
modifications: ttGGBP17C.2 (affinity-tuning mutant, 17C background (Table 6) with signal peptide replaced with M and GGSHHHHHH at C-terminus)
As for B1, the “Type of fluorescence response to glucose” value in series [1] (setting [5]) is reported as “d (d, intensity decrease only)”; in series [1] (setting [6]), “r(h) (r(h), ratiometric (hypsochromic shift))”. Moreover, the apoTm in series [2] (Badan conjugate) is on record as 350 K. The “S, selectivity = trueKd(galactose)/trueKd(glucose)” value in series [3] (Acrylodan conjugate) came to 0.28; in series [3] (Badan conjugate), 0.48. Further, the Kd was determined as 5 mM in series [3] (setting [7]); 5.2 mM in series [3] (setting [8]); 15 mM in series [4] (setting [9]); 8.6 mM in series [4] (setting [10]); 18 mM in series [4] (setting [11]); 10.8 mM in series [4] (setting [12]).

B2: ttGGBP17C.22: affinity-tuning mutant, 17C background, SEQ ID NO: 80 (protein)
chain: B1 chain with P69R, P152Q, A260N
modifications: ttGGBP17C.22 (affinity-tuning mutant, 17C background (Table 6) with signal peptide replaced with M and GGSHHHHHH at C-terminus)
On to B2, for which the “Type of fluorescence response to glucose” value in series [1] (setting [6]) is given as “i (i, intensity increase only)”. The apoTm in series [2] (Badan conjugate) turned out to be 343 K. The Kd is 12 mM in series [4] (setting [10]) and 15 mM in series [4] (setting [12]).

B3: ttGGBP17C.1: affinity-tuning mutant, 17C background, SEQ ID NO: 66 (protein)
chain: B1 chain with P69R, R91K, Q148E, P152Q
modifications: ttGGBP17C.1 (affinity-tuning mutant, 17C background (Table 6) with signal peptide replaced with M and GGSHHHHHH at C-terminus)
For the molecule B3, the “Type of fluorescence response to glucose” value was “d (d, intensity decrease only)” in series [1] (setting [5]) and “r(h) (r(h), ratiometric (hypsochromic shift))” in series [1] (setting [6]). In addition, the Kd in series [4] (setting [10]) was found to be 0.6 mM; in series [4] (setting [12]) it was 0.8 mM.

B4: ttGGBP17C.10: affinity-tuning mutant, 17C background, SEQ ID NO: 75 (protein)
chain: B1 chain with G20A, P69R, P152Q
modifications: ttGGBP17C.10 (affinity-tuning mutant, 17C background (Table 6) with signal peptide replaced with M and GGSHHHHHH at C-terminus)
B4: in series [1] (setting [5]), the “Type of fluorescence response to glucose” value is reported as “d (d, intensity decrease only)”. In series [2] (Acrylodan conjugate), this molecule returned an apoTm of 351 K.

B5: ttGGBP17C.4: affinity-tuning mutant, 17C background, SEQ ID NO: 69 (protein)
chain: B1 chain with P69R, H151Q, P152Q
modifications: ttGGBP17C.4 (affinity-tuning mutant, 17C background (Table 6) with signal peptide replaced with M and GGSHHHHHH at C-terminus)
Consider B5, for which the “Type of fluorescence response to glucose” value in series [1] (setting [5]) is “r(h) (r(h), ratiometric (hypsochromic shift))”; in series [1] (setting [6]), “r(h) (r(h), ratiometric (hypsochromic shift))”. For the same molecule, the apoTm in series [2] (Badan conjugate) is recorded as 347 K. Besides, the figures for the “S, selectivity = trueKd(galactose)/trueKd(glucose)” value in series [3] (Acrylodan conjugate) and in series [3] (Badan conjugate) were 0.29 and 2.2, respectively. Also, the Kd turned out to be 14 mM in series [3] (setting [7]); 14 mM in series [3] (setting [8]); 50 mM in series [4] (setting [9]); 16 mM in series [4] (setting [10]); 48 mM in series [4] (setting [11]); 6.4 mM in series [4] (setting [12]).

B6: ttGGBP17C.5: affinity-tuning mutant, 17C background, SEQ ID NO: 70 (protein)
chain: B1 chain with D15A, P69R, P152Q
modifications: ttGGBP17C.5 (affinity-tuning mutant, 17C background (Table 6) with signal peptide replaced with M and GGSHHHHHH at C-terminus)
As to B6, the “Type of fluorescence response to glucose” value is “r(h) (r(h), ratiometric (hypsochromic shift))” in series [1] (setting [5]) and “r(h) (r(h), ratiometric (hypsochromic shift))” in series [1] (setting [6]). Besides, the apoTm in series [2] (Acrylodan conjugate) amounted to 348 K; in series [2] (Badan conjugate), 345 K. Besides, the Kd in series [4] (setting [9]) came to 6 mM; in series [4] (setting [10]), 16 mM; in series [4] (setting [11]), 6 mM; in series [4] (setting [12]) it was 16 mM.

B7: ttGGBP17C.25: affinity-tuning mutant, 17C background, SEQ ID NO: 83 (protein)
chain: B1 chain with P69R, P152Q, A260K
modifications: ttGGBP17C.25 (affinity-tuning mutant, 17C background (Table 6) with signal peptide replaced with M and GGSHHHHHH at C-terminus)
In the case of B7, in series [1] (setting [6]), the “Type of fluorescence response to glucose” value is reported as “i (i, intensity increase only)”. Also, the “Galactose trueKd” value in series [3] (setting [8]) is “nb^e”. The Kd in series [4] (setting [10]) came out at 3.2 mM; in series [4] (setting [12]) it was 3.7 mM.

B8: ttGGBP17C.24: affinity-tuning mutant, 17C background, SEQ ID NO: 82 (protein)
chain: B1 chain with P69R, P152Q, A260R
modifications: ttGGBP17C.24 (affinity-tuning mutant, 17C background (Table 6) with signal peptide replaced with M and GGSHHHHHH at C-terminus)
As for B8, the “Type of fluorescence response to glucose” value in series [1] (setting [6]) is given as “i (i, intensity increase only)”. Further, in series [2] (Badan conjugate), the apoTm worked out at 344 K. Besides, the Kd in series [3] (setting [8]) is 29 mM.

B9: ttGGBP17C.29: affinity-tuning mutant, 17C background, SEQ ID NO: 87 (protein)
chain: B1 chain with P69R, P152Q, A260S
modifications: ttGGBP17C.29 (affinity-tuning mutant, 17C background (Table 6) with signal peptide replaced with M and GGSHHHHHH at C-terminus)
For the molecule B9, the “Type of fluorescence response to glucose” value in series [1] (setting [6]) is “i (i, intensity increase only)”. The apoTm in series [2] (Badan conjugate) came out at 343 K.

B10: ttGGBP17C.3: affinity-tuning mutant, 17C background, SEQ ID NO: 68 (protein)
chain: B1 chain with T16N, P69R, P152Q, D211A
modifications: ttGGBP17C.3 (affinity-tuning mutant, 17C background (Table 6) with signal peptide replaced with M and GGSHHHHHH at C-terminus)
Consider B10, for which the “Type of fluorescence response to glucose” value is given as “d (d, intensity decrease only)” in series [1] (setting [5]) and “r(h) (r(h), ratiometric (hypsochromic shift))” in series [1] (setting [6]). The apoTm in series [2] (Badan conjugate) is 346 K. Moreover, the Kd in series [3] (setting [7]) stood at 0.53 mM; in series [3] (setting [8]), 2.5 mM; in series [4] (setting [9]), 1.4 mM; in series [4] (setting [10]), 3.4 mM; in series [4] (setting [12]), 4.1 mM.

B11: ttGGBP17C.11: affinity-tuning mutant, 17C background, SEQ ID NO: 76 (protein)
chain: B1 chain with P69R, P152Q, T240A
modifications: ttGGBP17C.11 (affinity-tuning mutant, 17C background (Table 6) with signal peptide replaced with M and GGSHHHHHH at C-terminus)
As for B11, the “Type of fluorescence response to glucose” value in series [1] (setting [5]) was “d (d, intensity decrease only)”. Also, the apoTm in series [2] (Acrylodan conjugate) came to 348 K. In addition, the Kd in series [4] (setting [9]) and in series [4] (setting [11]) was 0.04 mM in each case.
